Literature values in paper PMC9249222.

Tests used:
[1] = biological target: UBR5 HECT PAM2L (Homo sapiens) (UniProt O95071)
[2] = biological target: PAIP PAM2 (Homo sapiens) (UniProt Q9H074)
Chain of PAIP PAM2 (Homo sapiens) (Q9H074 116-143): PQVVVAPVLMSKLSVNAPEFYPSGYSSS

Chain of UBR5 MLLE (O95071 2377-2454): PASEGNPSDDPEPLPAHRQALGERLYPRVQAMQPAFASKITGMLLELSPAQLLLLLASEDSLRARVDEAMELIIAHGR

Substance: UBR5 MLLE (from UniProt O95071)
- Kd [1]: 50 µM
- Kd [2]: 3.4 µM
